Results taken from article PMC8448731 (Nature Communications, 2021).

target: recombinant RBD (ThermoFisher, RP-87678) (SARS-CoV-2, Wuhan-Hu-1 assumed, UniProt P0DTC2); experiment: BLI; details: one partner purified

Binder | Kd
GST-tagged SR6v15 (VHH, not shown: GST, C-terminal, kept) VHH: EVQLVESGGGLVQAGDSLRLSCAASGDSYILWRMGWFRQAPGKEREFVAAISLDGQFTNYADSVRGRFSISADSAKYTVYLQMNSLKPEDTAVYYCAALPFLDYWGQGTQVTVSS | 2.18 nM

target: SARS-CoV-2 spike RBD with C-terminal 3xFlag tag and N-terminal signal peptide of the spike (RBD-3xFlag) (SARS-CoV-2, Wuhan-Hu-1 type (wild type), UniProt P0DTC2); experiment: not given; details: not given

Binder | binding result
SR4_t13 (VHH) VHH: KVQLVVTGRVLVQAGDSLRLSCVATGFQLSCYCVGWFRQAPGKELEFVASITQHAFRTYYADSVKGRFTISRDDAQNTVYLQMNSLEPEDTAVYYCAAAETPNILVHESYWGQGTQVTVSS | binds
SR12_f3 (VHH) VHH: QVQLVVSGGGLVQAGDSLRLSCAASGAIVHVFAMGWFRQAPGKEREFVASINLDNDATNYADSVKGRFTISRDDARNTVYLQMNSLKPEDTAVYYCNATIFMDSDLGDYWGRGTQVTVSS | binds
SR12_t6 (VHH) VHH: QVQLVVSGGGLVQAGDSLRLSCAASGAIVHVFAMGWFRQAPGKEREFVASINLDNDVTNYADSVKGRFTISRDDARNTVYLQMNSLKPEDTAVYYCNATIFTDSGLGDYWGRGTQVTVSS | binds
SR2_c3 (VHH) VHH: EVQLVESGGGLVQAGDSLRLSCAASGAFSSNVFMGWFRQAPGKEREFVASITPHHAVTDYADSVRGRFSISADSAKNTVYLQMNSLKPEDTAVYYCAAAIYRNATVLDYWGQGTQVTVSS | binds
SR2_t5 (VHH) VHH: QVQLVESGGGLVQAGDSLRLSCAASGAFSSNVFMGWFRQAPGKEREFVASITPHHAVTDYADSVRGRFSISADTAKNTVYLQMNSLKPEDTAVYYCAAAIYRNATVLDYWGQGTQVTVSS | binds
SR2_c4 (VHH) VHH: EVQLVESGGGLVQAGDSLRLSCAASGAFSSNVFMGWFRQAPGKEREFVASITPHHAVTDYADSVRGRFSISADSAKNTVYLQMNSLKPEDTAVYYCAAAIYCNATVLDYWGQGTQVTVSS | binds
SR6_f3 (VHH) VHH: QVQLVVSGGGLVQAGDSLRLSCAASGDCHVLWRMGWFRQAPGKEREFVAAISLDGLFTNYADSVRGRFSISADSAENTVYLQMNSLKPEDTAVYYCAAMPFFDYWGQGTQVTVSS | binds
SR6_t9 (VHH) VHH: QVQLVVSGGGLVQAGDSLRLSCTASGDCHVLWRMGWFRQAPGKELEFVAAISLDGQFANYADSVRGRFSISADSAENTVYLQMNSLKPEDTAVYYCAALPFLDYWGQGTQVTVSS | binds
SR6_t6 (VHH) VHH: QVQLVVSGGGLVQAGDSLRLSCAASGDCHVLWRMGWFRQAPGKEREFVAAISLDGQFTNYADSVRGRFSISADSAENTVYLQMNSLKPEDTAVYYCAALPFLDYWGQGTQVTVSS | binds
SR6_t5 (VHH) VHH: QVQLVVSGGGLVQAGDSLRLSCAASGDCHVLWRMGWFRQAPGKEREFVAAISLDGQFTNYADSVRGRFSISADSAKNTVYLQMNSLKPEDTAVYYCAALPFLDYWGQGTQVTVSS | binds
SR4_c1 (VHH) VHH: EVQLVESGGGLVQAGDSLRLSCAASGFQLSCYCMGWFRQAPGKEREFVASITQHAFRTYYADSVKGRFTISRDDARNTVYLQMNSLKPEDTAVYYCAAAETPNILVHENYWGQGTQVTVSS | binds
SR4_f3 (VHH) VHH: EVQLVVSGRGLVQAGDSLRLSCAASGFQLSCYCVGWFRQAPGKEREFVASITQHAFRTYYADSVKGRFTISRDDARNTVYLQMNSLKPEDTAVYYCAAAETPNILVYENYWGQGTQVTVSS | binds
SR4_t9 (VHH) VHH: KVQLVVSGRVLVQAGDSLRLSCAATGFQLSCYCVGWFRQAPGKELEFVASITQHAFRTYYADSVKGRFTISRDDARNTVYLQMNSLKPEDTAVYYCAAAETPNILVHESYWGQGTQVTVSS | binds
SR4_t4 (VHH) VHH: EVQLVVSGRGLVQAGDSLRLSCAASGFQLSCYCVGWFRQAPGKEREFVASITQHAFRTYYADSVKGRFTISRDDARNTVYLQMNSLKPEDTAVYYCAAAETPNILVHENYWGQGTQVTVSS | binds
SR4_t6 (VHH) VHH: EVQLVVSGRVLVQAGDSLRLSCAASGFQLSCYCVGWFRQAPGKEREFVASITQHAFRTYYADSVKGRFTISRDDARNTVYLQMNSLKPEDTAVYYCAAAETPNILVHESYWGQGTQVTVSS | binds
SR1_t2 (VHH) VHH: EVRLVESGGGLVLAGDSLRLSCAASGKTGRSVIMGWFRQAPDKEREFVATITRGDDTTNYADSVKGRFTISRDDARNTVYLQMNSLKPEDTAVYYCAAVYFVNDCIVDYWGQGTQVTVSS | binds
